Results: the supplement of paper PMC9732359
± gives the uncertainty stated by the source.

Test: protein stability index of a GFP-peptide fusion (yeast GPS) (PSI 1-4); higher = more stable; sorted into four equal gates, so the index is relative within each strain
Outline: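 Tiled 17-residue peptides from yeast proteins were fused downstream of GFP on a plasmid that also expresses Cherry, and the pooled library was carried in yeast. Mid-log cultures grown in leucine-free medium were sorted into four equal gates by GFP/Cherry fluorescence ratio. Plasmids from each gate were PCR-amplified and Illumina-sequenced, and reads were assigned to strains by barcodes. Each peptide's protein stability index is the sum, over gates, of the gate's read frequency multiplied by its gate number.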

Row | Sequence | protein stability index (doa10∆) | protein stability index (pdr5∆) | protein stability index (san1∆) | protein stability index (ubr1∆)
1 | MKVEELIIDGFKSYATR [SMC2] | 3.45 ± 0.19 | 3.21 ± 0.08 | 3.11 ± 0.063 | 3.22 ± 0.096
2 | MKVKADRDESSPYAAML [RPS14A] | 3.37 ± 0.1 | 3.29 ± 0.065 | 3.23 ± 0.048 | 3.27 ± 0.068
3 | MLSAHNIIESIANFSRA [YJR042W/NUP85] | 2.31 ± 0.074 | 2.43 ± 0.063 | 2.87 ± 0.048 | 2.48 ± 0.036
4 | MNFISKEEFIMMVNISV [PCI8] | 1.41 ± 0.059 | 1.25 ± 0.046 | 1.32 ± 0.16 | 1.37 ± 0.063
5 | MNFNTPQQNKTPFSFGT [YJL041W/NSP1] | 3.15 ± 0.057 | 3 ± 0.051 | 2.92 ± 0.061 | 2.95 ± 0.05
6 | MNNETSGKETASAPLCS [DLS1] | 3.01 ± 0.067 | 3.21 ± 0.06 | 3.18 ± 0.055 | 3.12 ± 0.063
7 | MNQSSIDRGLFRSLFFR [RPB2] | 3.16 ± 0.16 | 2.97 ± 0.2 | 2.63 ± 0.26 | 2.94 ± 0.08
8 | MPDEFNTLYTAIITDDL [SRP72] | 2.39 ± 0.047 | 2.5 ± 0.043 | 2.6 ± 0.035 | 2.64 ± 0.043
9 | MQANKLDSQETPSTEES [SWI3] | 1.79 ± 0.096 | 2.35 ± 0.073 | 2.39 ± 0.11 | 2.36 ± 0.056
10 | MQEKAAHIAKNLINLSI [YCS4] | 2.15 ± 0.15 | 1.55 ± 0.2 | – | 1.46 ± 0.093
11 | MQGKITKVLNMKPSEIL [SMC2] | 2.48 ± 0.25 | 2.88 ± 0.18 | – | –
12 | MQTALRRLPEDESYARA [QCR7] | 2.78 ± 0.058 | 2.5 ± 0.066 | 2.34 ± 0.05 | 2.39 ± 0.044
13 | MQVLNTKSETKQENETM [MED11] | 2.79 ± 0.081 | 2.16 ± 0.11 | 1.41 ± 0.26 | 2 ± 0.092
14 | MSAKAEKKPASKAPAEK [HTB1] | 3.51 ± 0.13 | 3.41 ± 0.12 | 3.16 ± 0.12 | 2.89 ± 0.098
15 | MSDHSLDKLNCAINSKS [RRP6] | 2.49 ± 0.057 | 2.8 ± 0.047 | 2.59 ± 0.051 | 2.83 ± 0.036
16 | MSESSDISAMQPVNPKP [SMX3] | 3.42 ± 0.15 | 3.51 ± 0.16 | 3.4 ± 0.12 | 3.17 ± 0.14
17 | MSGSLKSLDKKIAKRRQ [POP3] | 3.19 ± 0.24 | 2.98 ± 0.21 | – | 3.5 ± 0.2
18 | MSGYDRALSIFSPDGHI [PRE6] | 2.82 ± 0.12 | 2.38 ± 0.14 | 2.76 ± 0.09 | 2.69 ± 0.077
19 | MSKITSSQVREHVKELL [RPL1A] | 1.59 ± 0.092 | 2.09 ± 0.065 | 2.45 ± 0.093 | 1.99 ± 0.051
20 | MSLRHFGHLMHYGNEHI [RPN1] | 1.47 ± 0.04 | 1.38 ± 0.039 | 1.4 ± 0.066 | 1.33 ± 0.032
21 | MSLVVQEQGSFQHILRL [RPS18A] | 2.95 ± 0.14 | 2.83 ± 0.12 | 2.65 ± 0.1 | 2.92 ± 0.1
22 | MSNKVKTKAMVPPINCI [SME1] | 2.42 ± 0.057 | 2.35 ± 0.053 | 2.64 ± 0.05 | 2.57 ± 0.035
23 | MSQGQSKKLDVTVEQLR [NSL1] | 2.64 ± 0.075 | 2.74 ± 0.075 | 2.7 ± 0.056 | 2.78 ± 0.075
24 | MSQSTASLVPEGNQGSL [MED8] | 3.16 ± 0.12 | 2.97 ± 0.1 | 2.62 ± 0.096 | 2.76 ± 0.13
25 | MSSTNGNAPATPSSDQN [SOH1] | 3.17 ± 0.09 | 2.75 ± 0.1 | 3.2 ± 0.058 | 3.11 ± 0.1
26 | MSTDSIVKASNWRLVEV [RPL14A] | 2.82 ± 0.1 | 1.44 ± 0.13 | – | 1.71 ± 0.087

Row | Sequence | protein stability index (doa10∆) | protein stability index (pdr5∆) | protein stability index (san1∆) | protein stability index (ubr1∆)
27 | MSTFIFPGDSFPVDPTT [RRP40] | 2.17 ± 0.11 | 2.06 ± 0.092 | 2.35 ± 0.068 | 2.35 ± 0.074
28 | MTDMQIQWYKSLLEKDI [ISW2] | 1.84 ± 0.058 | 2.35 ± 0.062 | 1.74 ± 0.092 | 2.78 ± 0.061
29 | MTLNRKCVVIHNGSHRT [ARP7] | 2.59 ± 0.051 | 2.74 ± 0.062 | 2.54 ± 0.059 | 2.66 ± 0.045
30 | MTPLLVNCLELLINTNF [PCI8] | 1.6 ± 0.037 | 1.6 ± 0.042 | 1.48 ± 0.078 | 1.42 ± 0.057
31 | MTPVIEKIAAGYMQKPV [PRP28] | 2.16 ± 0.11 | 1.93 ± 0.11 | 1.83 ± 0.14 | 2.68 ± 0.075
32 | MVDVEEKSQEVEYVDPT [RPN7] | 3.06 ± 0.22 | – | – | 3.38 ± 0.16
33 | MVLFNIYDDWLDRISSY [PRP8] | 2.26 ± 0.054 | 2.47 ± 0.046 | 2.19 ± 0.075 | 2.26 ± 0.045
34 | MVMAGSKGSFINIAQMS [RPO21] | 1.43 ± 0.054 | 1.67 ± 0.049 | 1.25 ± 0.083 | 1.42 ± 0.05
35 | MVNESDGVTHALYPQEA [RPB2] | 3.16 ± 0.087 | 3.26 ± 0.081 | 3.05 ± 0.067 | 3.35 ± 0.086
36 | MYPSPTGVMIGIDLAYN [PRP8] | 2.11 ± 0.074 | 2.1 ± 0.07 | 1.97 ± 0.081 | 2.07 ± 0.048
37 | MYTLSAQDEVFSLAFSP [ASC1] | 2.24 ± 0.062 | 2.82 ± 0.085 | 2.78 ± 0.059 | 2.75 ± 0.066
38 | NAAGNTPDATKIKAILE [RPP2A] | 3.13 ± 0.089 | 3.32 ± 0.092 | 2.99 ± 0.085 | 3.19 ± 0.054
39 | NACAKYGRDDMENIKKS [ISW2] | 2.91 ± 0.11 | 2.93 ± 0.12 | 3.08 ± 0.078 | 3.06 ± 0.086
40 | NADLDVKDELMFSPLVD [RPO21] | 3.17 ± 0.047 | 3.08 ± 0.04 | 3.15 ± 0.041 | 3.31 ± 0.034
41 | NAGTEKEKESKKDSKPA [YLR335W/NUP2] | 3.31 ± 0.084 | 3.15 ± 0.074 | 3.54 ± 0.056 | 3.42 ± 0.05
42 | NANAGLFNKPPSTNAQN [YOR098C/NUP1] | 3.1 ± 0.046 | 3.17 ± 0.046 | 3.06 ± 0.038 | 3.16 ± 0.034
43 | NANTVFAGSNNQPHQSQ [YOR098C/NUP1] | 2.85 ± 0.1 | 3.15 ± 0.08 | 2.89 ± 0.06 | 3.07 ± 0.046
44 | NAQQTFHIDHTKPSDLT [RPO21] | 2.85 ± 0.044 | 2.6 ± 0.042 | 2.69 ± 0.048 | 2.82 ± 0.041
45 | NAQSKLSLTLNTHYHAD [SNF2] | 2.76 ± 0.096 | 2.81 ± 0.11 | 2.73 ± 0.13 | 3.09 ± 0.085
46 | NARIYNTEGSVVYEDSL [SNF2] | 3.1 ± 0.084 | 3.25 ± 0.085 | 2.92 ± 0.11 | 3.25 ± 0.13
47 | NAYGFIEWCSRCNDNLM [YJL039C/NUP192] | 3 ± 0.079 | 2.54 ± 0.088 | 2.75 ± 0.083 | 2.24 ± 0.078
48 | NDDALDLDLDLFDPDDF [MED4] | 2.88 ± 0.045 | 3.04 ± 0.068 | 2.81 ± 0.036 | 3.07 ± 0.032
49 | NDDSSSMNATMRNFSKQ [YDL088C/ASM4] | 2.76 ± 0.087 | 3.14 ± 0.11 | 2.71 ± 0.13 | 2.93 ± 0.091
50 | NDEPSHKKIKVAQPDSL [SIR2] | 2.32 ± 0.079 | 2.31 ± 0.071 | 1.63 ± 0.1 | 3.19 ± 0.055
51 | NDINISSIENNINNNIN [MED2] | 2.87 ± 0.044 | 3 ± 0.047 | 2.86 ± 0.041 | 3.11 ± 0.039
52 | NDLGKFIPNKQLNCVID [RPN7] | 2.49 ± 0.13 | 2.85 ± 0.19 | 2.77 ± 0.17 | 3.05 ± 0.19
